# According to paper PMC3392941 (The Journal of Cell Biology, 2012):
# T1: Recombinant Myo2 CBD, Myo2(1,131–1,574) (S. cerevisiae, UniProt P19524 1131-1574)
# T1 sequence: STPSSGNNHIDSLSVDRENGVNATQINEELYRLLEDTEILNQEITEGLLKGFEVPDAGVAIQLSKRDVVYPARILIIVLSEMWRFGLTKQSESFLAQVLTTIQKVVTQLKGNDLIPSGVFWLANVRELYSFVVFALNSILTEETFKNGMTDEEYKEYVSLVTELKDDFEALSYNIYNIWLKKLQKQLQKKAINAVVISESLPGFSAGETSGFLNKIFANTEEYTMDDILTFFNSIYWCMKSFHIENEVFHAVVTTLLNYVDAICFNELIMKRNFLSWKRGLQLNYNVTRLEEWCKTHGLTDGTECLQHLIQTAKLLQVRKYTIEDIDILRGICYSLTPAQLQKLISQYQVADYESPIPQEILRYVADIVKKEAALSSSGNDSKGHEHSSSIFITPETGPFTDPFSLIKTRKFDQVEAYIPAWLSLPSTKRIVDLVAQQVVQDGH
# B1: MBP-Vac17(112–157) (domain or fragment)
# chain: PNEAPNDSPQSQSTRSSLGSFQPRPLKIIERQRLCMVTPSKPPKKS
# Biological target: T1, Recombinant Myo2 CBD, Myo2(1,131–1,574)
# Test: SEC
binder,measurement,value
B1,binding result,binds
